Laboratory results: article PMC8293591, “Vibrio vulnificus induces the death of a major bacterial species in the mouse gut via cyclo-Phe-Pro” (Microbiome, 2021)

What was measured:
ObgE (rObgE) = target: T1, ObgE (rObgE) (Phocaeicola vulgatus, UniProt A6L100); assay: isothermal titration calorimetry; assay type: binding
T1 construct: gene obg; 45 kDa; nucleotide-free (alkaline phosphatase, gel filtration)
T1 sequence (A6L100 1-394): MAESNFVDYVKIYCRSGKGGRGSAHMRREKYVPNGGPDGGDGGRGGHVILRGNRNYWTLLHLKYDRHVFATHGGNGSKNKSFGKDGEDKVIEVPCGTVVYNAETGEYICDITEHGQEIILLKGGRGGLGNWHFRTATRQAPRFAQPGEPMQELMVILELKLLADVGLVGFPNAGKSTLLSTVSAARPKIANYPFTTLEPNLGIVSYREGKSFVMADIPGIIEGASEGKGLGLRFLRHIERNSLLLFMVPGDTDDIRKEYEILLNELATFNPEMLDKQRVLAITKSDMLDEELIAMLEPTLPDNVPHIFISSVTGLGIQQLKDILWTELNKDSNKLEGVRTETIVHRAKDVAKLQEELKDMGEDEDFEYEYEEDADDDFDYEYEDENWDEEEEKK

[1] = target: recombinant ObgE of Bacteroides vulgatus MGM001, nucleotide-free (Bacteroides vulgatus MGM001); assay: ITC; MicroCal iTC200; nucleotide-free rObgE (40 μM) titrated with 400 μM cyclic dipeptide at 25 °C in 20 mM HEPES (pH 7.5), 150 mM NaCl, 5 mM MgCl2, 1 mM β-mercaptoethanol; single binding site model

Row | Compound | Kd (ObgE (rObgE)) | Kd [1] | stoichiometry N [1]
1 | O=C1N[C@@H](Cc2ccccc2)C(=O)N2CCC[C@@H]12 [cFP] | 1800 ± 350 nM |  | 
2 | cyclo-(phenylalanine-proline) (peptide) |  | 1800 nM | 0.78
